From publication doi:10.1101/2022.05.07.491051 (bioRxiv, 2022)
Read-outs that look alike come from different tables or passages of the source.

Tests used:
SEC-MALS [1] = biological target: the molecule itself; test: SEC-MALS
SEC-MALS [2] = biological target: the molecule itself; test: SEC-MALS; remark: listed apart in the source
crystal structure = biological target: the molecule itself; test: crystal structure

Protein	stoichiometry N (SEC-MALS [2])	also measured
AbTir^CC (amino acid 27-118) (domain or fragment, Acinetobacter, UniProt A0A009IHW8 27-118, looked up) SPSTLKTKLSEISRKEQENARIQSKLSDLQKKKIDIDNKLLKEKQNLIKEEILERKKLEVLTKKQQKDEIEHQKKLKREIDAIKASTQYITD	–	binding result (SEC-MALS [1]): binds
SeThsA (Streptococcus equi ThsA) (enzyme) MFIIKGEVSRKDLIREIEKAIKSDELGAFIGAGLSIPAGFCSWKELLREPAEEIGLDVEKESDLVNLAQYYSNSKKRTSIDDLIKGQFSQLVKPTENHKLLSQLPISTFWTTNYDKLIEKALENNMKKPYVKTKDEQLRGTNHNFDAIVYKLHGDVETPEDAVITRSDYEEFGYNKRKLFREVLEGDLLTKTFLFLGFSFEDPNFNYVIGRLRVLLDEKNTRKHYCIMKRVQDADEDYEYKKARQELQIEDLNRYGIFTYLVNKYDEITEILSTLVDRFRRKTIFISGSAYSYSAYSQKTGENFIHKLSFELSKNGYHIVNGYGKGVGEFVLNGVADYCLTHKSKINDFLTLMPFPQNSSLGIDLDKLYKENREQMIESCGIAIFLFGNKEAEDIASGVMDEYELSKKHGLVCLPIEYTGGASKEIYDQTTQEISDKNTISAIEQANKQCDGDIDMSVKNIVQAVKILNKEEF	4	–
AbThsA (Acinetobacter baumannii ThsA) (enzyme, UniProt P0DW59 1-482, looked up) MFEHEQKIMIDRIVKELEENNFAIFAGAGLSAPAGYVNWKELLRPLSIELNLDIDKETDLVSLAQYYVNENHGRNRLTERLIDEVGVAREPTPNHKILAKLPISTYWTTNYDDLIEKALDNEGKIADKKFTKNHLSQTKKGRSAVVYKMHGDASLPDQAIITKDQYESYPLHFAPFVTALSGDLVSKTFLFLGFSFNDPNLDYILSRIRIHFEQNQRQHYCIFRKVNRADYSNDEDFSYNLLKQQFVIKDLARFSIKVVLIDAWNDLTRILEEITKRFRCKNVFLSGSAHEFGSWGQTATELFLSKLGEVLIQEGFKITSGLGLGIGNAFISGAIKEIYNRKYTKIDDYLTMKVFPQFVADPTERKNIWTAWRKDLLSQTGIALFFMGNKIIKDPESGKQTIVLADGMDEEFHIAHELGLKLIPIGASGYKAKELFNQIISDFDHYYPNSSPKFREAFEKLNEEVDEPVKLLSKIHDVIKLI	4	–
AbTir^TIR (amino acid 134-267) (domain or fragment, Acinetobacter, UniProt A0A009IHW8 134-267, looked up) EYDLFISHASEDKEDFVRPLAETLQQLGVNVWYDEFTLKVGDSLRQKIDSGLRNSKYGTVVLSTDFIKKDWTNYELDGLVAREMNGHKMILPIWHKITKNDVLDYSPNLADKVALNTSVNSIEEIAHQLADVIL	–	binding result (SEC-MALS [1]): binds
AbTir^full-length (amino acid 1-269) (natural protein, Acinetobacter, UniProt A0A009IHW8 1-269, looked up) MSLEQKKGADIISKILQIQNSIGKTTSPSTLKTKLSEISRKEQENARIQSKLSDLQKKKIDIDNKLLKEKQNLIKEEILERKKLEVLTKKQQKDEIEHQKKLKREIDAIKASTQYITDVSISSYNNTIPETEPEYDLFISHASEDKEDFVRPLAETLQQLGVNVWYDEFTLKVGDSLRQKIDSGLRNSKYGTVVLSTDFIKKDWTNYELDGLVAREMNGHKMILPIWHKITKNDVLDYSPNLADKVALNTSVNSIEEIAHQLADVILNR	–	stoichiometry N (SEC-MALS [1]): 2
BcThsA, full-length (Bacillus cereus MSX-D12 Thoeris ThsA) (enzyme, Bacilus cereus MSX-D12, UniProt J8G6Z1 1-476, looked up) MKMNPIVELFIKDFTKEVMEENAAIFAGAGLSMSVGYVSWAKLLEPIAQEIGLDVNKENDLVSLAQYYCNENQGNRGRINQIILDEFSRKVDLTENHKILARLPIHTYWTTNYDRLIEKALEEENKIADVKYTVKQLATTKVKRDAVVYKMHGDVEHPSEAVLIKDDYEKYSIKMDPYIKALSGDLVSKTFLFVGFSFTDPNLDYILSRVRSAYERDQRRHYCLIKKEERRPDELEADFEYRVRKQELFISDLSRFNIKTIVLNNYNEITEILQRIENNIKTKTVFLSGSAVEYNHWETEHAEQFIHQLSKELIRKDFNIVSGFGLGVGSFVINGVLEELYMNQGTIDDDRLILRPFPQGKKGEEQWDKYRRDMITRTGVSIFLYGNKIDKGQVVKAKGVQSEFNISFEQNNYVVPVGATGYIAKDLWNKVNEEFETYYPGADARMKKLFGELNNEALSIEELINTIIEFVEILSN	4	–
SeThsA^SIR2 (residues 1-283) (domain or fragment, Streptococcus equi, UniProt C0MAL8 1-283, looked up) MFIIKGEVSRKDLIREIEKAIKSDELGAFIGAGLSIPAGFCSWKELLREPAEEIGLDVEKESDLVNLAQYYSNSKKRTSIDDLIKGQFSQLVKPTENHKLLSQLPISTFWTTNYDKLIEKALENNMKKPYVKTKDEQLRGTNHNFDAIVYKLHGDVETPEDAVITRSDYEEFGYNKRKLFREVLEGDLLTKTFLFLGFSFEDPNFNYVIGRLRVLLDEKNTRKHYCIMKRVQDADEDYEYKKARQELQIEDLNRYGIFTYLVNKYDEITEILSTLVDRFRRKT	2	–
EfThsA (Enterococcus faecium ThsA) (enzyme, UniProt P0DW60 1-478, looked up) MDKKVLIKRFSEAIEKGNAAIFAGAGLSMSQGYVSWPELLNDPATEIGLDSKKETDLVTLAQYYKNENGGSRGILNQILMDNFGEELEISENHRILASLPIETYWTTNYDHLIEKSIREAYKNPQVKKNYTQLATTNPNVDTIVYKMHGDIDDVSSTVITRDDYEKYDDDSYALFKETLKGDLLTKTFLFLGFSFTDPNLERILSDIRWVLRENQRPHYCIMRKILKENFVDSEDFFDQERYNYELTKRRLQINDLSRFSINVVEVDDYSEITDILKSIRKKYLRKTIFISGSAVDYTPFTSESKGLKFVEKLAYRLSESGYRIVSGYGLGIGNSIVSGVLKQRRNLRKNNIQDVLSLRPLPLDMPHEWRRYRENIIAESGISIFVFGNKLESGEIVTADGMIEEFELSVQNENIVVPIGFTKGASKVLFDKIQENFSDYFDDSLKSKFQALEKLDTEGEVDKKVEQIVSLINSIQED	4	–
BcThsA^SLOG (284-476) (domain or fragment, Bacilus cereus MSX-D12, UniProt J8G6Z1 284-476, looked up) TVFLSGSAVEYNHWETEHAEQFIHQLSKELIRKDFNIVSGFGLGVGSFVINGVLEELYMNQGTIDDDRLILRPFPQGKKGEEQWDKYRRDMITRTGVSIFLYGNKIDKGQVVKAKGVQSEFNISFEQNNYVVPVGATGYIAKDLWNKVNEEFETYYPGADARMKKLFGELNNEALSIEELINTIIEFVEILSN	2	–
BtTir^TIR (residues 156-287) (domain or fragment, Bacteroides thetaiotaomicron, UniProt A0A0P0FGV9 156-287, looked up) QYDFFISHASEDKDDIVRDLAEALRNNGFEVWYDEFELKIGDSLRKKIDYGLSNANYGIVIISPSFVKKNWTEYELNGMVAREMNGHKVILPIWHKITKDEVLRFSPSLADKLALNTSIHTIDDIVENLKNL	–	binding result (crystal structure): binds
